# The MegaScale stability set (Tsuboyama et al. 2023)
# B1: EHEE_rd3_0053 (parent)
# chain: TYTFKVDNKDQAKKAAKWAKKLGLSFQIEKHGDTFKITVQ
# Variants of: B1
# Experiment: folding stability dG (cDNA display proteolysis); higher = more stable
# Conditions: PBS, room temperature
row,Variant,folding stability dG [kcal/mol]
1,TYTFKVDNKDQAKKAAKWAKKYGLSFQIEKHGDTFKITVQ [L22Y],2.3
2,TYTFKVDNKDQAKKAAKWAKKDGLSFQIEKHGDTFKITVQ [L22D],-0.31
3,TYTFKVDNKDQAKKAAKWAKKGGLSFQIEKHGDTFKITVQ [L22G],0.897
4,TYTFKVDNKDQAKKAAKWAKKRGLSFQIEKHGDTFKITVQ [L22R],2.63
5,TYTFKVDNKDQAKKAAKWAKKHGLSFQIEKHGDTFKITVQ [L22H],2.6
6,TYTFKVDNKDQAKKAAKWAKKEGLSFQIEKHGDTFKITVQ [L22E],1.46
7,TYTFKVDNKDQAKKAAKWAKKCGLSFQIEKHGDTFKITVQ [L22C],3.29
8,TYTFKVDNKDQAKKAAKWAKKIGLSFQIEKHGDTFKITVQ [L22I],1.76
9,TYTFKVDNKDQAKKAAKWAKKTGLSFQIEKHGDTFKITVQ [L22T],1.41
10,TYTFKVDNKDQAKKAAKWAKKKGLSFQIEKHGDTFKITVQ [L22K],2.44
11,TYTFKVDNKDQAKKAAKWAKKLGQSFQIEKHGDTFKITVQ [L24Q],0.563
12,TYTFKVDNKDQAKKAAKWAKKLGDSFQIEKHGDTFKITVQ [L24D],-0.587
13,TYTFKVDNKDQAKKAAKWAKKLGVSFQIEKHGDTFKITVQ [L24V],1.4
14,TYTFKVDNKDQAKKAAKWAKKLGISFQIEKHGDTFKITVQ [L24I],1.73
15,TYTFKVDNKDQAKKAAKWAKKLGFSFQIEKHGDTFKITVQ [L24F],2.2
16,TYTFKVDNKDQAKKAAKWAKKLGESFQIEKHGDTFKITVQ [L24E],-0.483
17,TYTFKVDNKDQAKKAAKWAKKLGHSFQIEKHGDTFKITVQ [L24H],1.31
18,TYTFKVDNKDQAKKAAKWAKKLGMSFQIEKHGDTFKITVQ [L24M],2.11
19,TYTFKVDNKDQAKKAAKWAKKLGTSFQIEKHGDTFKITVQ [L24T],0.294
20,TYTFKVDNKDQAKKAAKWAKKLGWSFQIEKHGDTFKITVQ [L24W],2.04
21,TYTFKVDNKDQAKKAAKWAKKLGGSFQIEKHGDTFKITVQ [L24G],0.159

row,Variant,folding stability dG [kcal/mol]
1,TYTFKVDNKDQAKKAAKWAKKLGKSFQIEKHGDTFKITVQ [L24K],1.32
2,TYTFKVDNKDQAKKAAKWAKKLGYSFQIEKHGDTFKITVQ [L24Y],2.33
3,TYTFKVDNKDQAKKAAKWAKKLGRSFQIEKHGDTFKITVQ [L24R],1.15
4,TYTFKVDNKDQAKKAAKWAKKLGNSFQIEKHGDTFKITVQ [L24N],0.22
5,TYTFKVDNKDQAKKAAKWAKKLGSSFQIEKHGDTFKITVQ [L24S],0.343
6,TYTFKVDNKDQAKKAAKWAKKLGASFQIEKHGDTFKITVQ [L24A],1.01
7,TYTFKVDNKDQAKKAAKWALKLGLSFQIEKHGDTFKITVQ [K20L],2.28
8,TYTFKVDNKDQAKKAAKWATKLGLSFQIEKHGDTFKITVQ [K20T],2.24
9,TYTFKVDNKDQAKKAAKWAWKLGLSFQIEKHGDTFKITVQ [K20W],2.14
10,TYTFKVDNKDQAKKAAKWAMKLGLSFQIEKHGDTFKITVQ [K20M],2.34
11,TYTFKVDNKDQAKKAAKWAEKLGLSFQIEKHGDTFKITVQ [K20E],2.02
12,TYTFKVDNKDQAKKAAKWACKLGLSFQIEKHGDTFKITVQ [K20C],2.67
13,TYTFKVDNKDQAKKAAKWAPKLGLSFQIEKHGDTFKITVQ [K20P],-0.72
14,TYTFKVDNKDQAKKAAKWANKLGLSFQIEKHGDTFKITVQ [K20N],1.83
15,TYTFKVDNKDQAKKAAKWAHKLGLSFQIEKHGDTFKITVQ [K20H],2.01
16,TYTFKVDNKDQAKKAAKWAGKLGLSFQIEKHGDTFKITVQ [K20G],1.54
17,TYTFKVDNKDQAKKAAKWAFKLGLSFQIEKHGDTFKITVQ [K20F],2.07
18,TYTFKVDNKDQAKKAAKWARKLGLSFQIEKHGDTFKITVQ [K20R],2.45
19,TYTFKVDNKDQAKKAAKWAVKLGLSFQIEKHGDTFKITVQ [K20V],1.98
20,TYTFKVDNKDQAKKAAKWASKLGLSFQIEKHGDTFKITVQ [K20S],2.08
21,TYTFKVDNKDQAKKAAKWAQKLGLSFQIEKHGDTFKITVQ [K20Q],2.3

row,Variant,folding stability dG [kcal/mol]
1,TYTFKVDNKDQAKKAAKWADKLGLSFQIEKHGDTFKITVQ [K20D],1.48
2,TYTFKVDNKDQAKKAAKWAAKLGLSFQIEKHGDTFKITVQ [K20A],2.29
3,TYTFKVDNKDQAKKAAKWAYKLGLSFQIEKHGDTFKITVQ [K20Y],2.13
4,TYTFKVDNKDQAKKAAKWAIKLGLSFQIEKHGDTFKITVQ [K20I],2.24
5,TYTFKVDNKDQAKKAAKWAKKLGLFFQIEKHGDTFKITVQ [S25F],2.31
6,TYTFKVDNKDQAKKAAKWAKKLGLDFQIEKHGDTFKITVQ [S25D],2.18
7,TYTFKVDNKDQAKKAAKWAKKLGLEFQIEKHGDTFKITVQ [S25E],2.21
8,TYTFKVDNKDQAKKAAKWAKKLGLAFQIEKHGDTFKITVQ [S25A],2.36
9,TYTFKVDNKDQAKKAAKSAKKLGLSFQIEKHGDTFKITVQ [W18S],0.747
10,TYTFKVDNKDQAKKAAKTAKKLGLSFQIEKHGDTFKITVQ [W18T],1.1
11,TYTFKVDNKDQAKKAAKVAKKLGLSFQIEKHGDTFKITVQ [W18V],1.36
12,TYTFKVDNKDQAKKAAKGAKKLGLSFQIEKHGDTFKITVQ [W18G],0.349
13,TYTFKVDNKDQAKKAAKRAKKLGLSFQIEKHGDTFKITVQ [W18R],1.5
14,TYTFKVDNKDQAKKAAKMAKKLGLSFQIEKHGDTFKITVQ [W18M],1.68
15,TYTFKVDNKDQAKKAAKHAKKLGLSFQIEKHGDTFKITVQ [W18H],1.22
16,TYTFKVDNKDQAKKAAKNAKKLGLSFQIEKHGDTFKITVQ [W18N],0.859
17,TYTFKVDNKDQAKKAAKQAKKLGLSFQIEKHGDTFKITVQ [W18Q],1.17
18,TYTFKVDNKDQAKKAAKLAKKLGLSFQIEKHGDTFKITVQ [W18L],1.77
19,TYTFKVDNKDQAKKAAKIAKKLGLSFQIEKHGDTFKITVQ [W18I],1.72
20,TYTFKVDNKDQAKKAAKYAKKLGLSFQIEKHGDTFKITVQ [W18Y],1.61
21,TYTFKVDNKDQAKKAAKKAKKLGLSFQIEKHGDTFKITVQ [W18K],1.45
